Target: T1, HLA-A*02:01 (human)
T1 construct: MHC class I monomer of the UV-ligand exchange assay; also called peptide-receptive MHC molecules; MHC class I
Assay: UV peptide-exchange ELISA
Procedure, shortened: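 Peptide-MHC complexes formed by UV-mediated exchange of a UV-cleavable peptide for the test peptide; exchange yield quantified by β2m ELISA. Diluted 100-fold, captured on streptavidin-coated plates 1 h at 37 °C, detected with HRP anti-β2m and TMB at 450 nm against refolded HLA-A*02:01 monomer standards (15-500 ng/ml).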

Binder	peptide exchange yield
HLYPGAVTI	50 to 75%
ILDLNTYNV	50 to 75%
HQIEAVDGEEL	20 to 50%
GVMDVNTAL	20 to 50%
GLQSGVDIGV	50 to 75%
HLMLHTAAL	≥ 75%
ILDFGTFQL	50 to 75%
GLLRIIPYL	50 to 75%
GLQAKIQEA	50 to 75%
ALAASALPALV	50 to 75%
GQGEVLVYV	50 to 75%
GLPSFLTEV	50 to 75%
ILEPLNPLL	50 to 75%
ILFNTQINI	50 to 75%
ALCDTLITV	50 to 75%
ILDEIGADVQA	50 to 75%

Now from value to binder:

peptide exchange yield	Binder
≥ 75%	ILVVIEPLL
50 to 75%	ILIDKTSFV
50 to 75%	ILIFHSVAL
10 to 20%	SLIKYFLFV
20 to 50%	VLIEDELEEL
50 to 75%	VIADLGLIRV
50 to 75%	ILFPLRFTL
20 to 50%	ILGYMAHEHKV
50 to 75%	ILNNEVFAI
50 to 75%	WLVGQEFEL
20 to 50%	LLFATQITL

Reference: patent US20170165337A1 (IMMATICS BIOTECHNOLOGIES, published 2017)
